{"source": "paper PMC2602789", "molecular_target": "wild-type Tn3 resolvase (bacterial transposon Tn3) (UniProt P0ADI2)", "assay": "SEC"}
{"substance": "wild-type Tn3 resolvase (from UniProt P0ADI2 1-185) (enzyme)", "values": [{"measurement": "stoichiometry N", "value": 2}]}
